{"source": "patent US8791249B2", "about": "“Nucleic acid encoding humanized c-kit antibody” (Amgen Inc., priority 2006, dated 2014)", "molecules": {"B1": {"name": "SR-1: Murine anti-human c-Kit antibody; light chain SEQ ID NO: 8, muIgG2a heavy chain SEQ ID NO: 10 (antibody, listed as Homo sapiens)", "heavy": "MGWSCIILFLVATATGVHSQVQLQQPGAELVKPGASVKMSCKASGYTFTSYNMHWVKQTPGQGLEWIGVIYSGNGDTSYNQKFKGKATLTADKSSSTAYMQINSLTSEDSAVYYCARERDTRFGNWGQGTLVTVSAAKTTAPSVYPLAPVCGDTTGSSVTLGCLVKGYFPEPVTLTWNSGSLSSGVHTFPAVLQSDLYTLSSSVTVTSSTWPSQSITCNVAHPASSTKVDKKIEPRGPTIKPCPPCKCPAPNLLGGPSVFIFPPKIKDVLMISLSPIVTCVVVDVSEDDPDVQISWFVNNVEVHTAQTQTHREDYNSTLRVVSALPIQHQDWMSGKEFKCKVNNKDLPAPIERTISKPKGSVRAPQVYVLPPPEEEMTKKQVTLTCMVTDFMPEDIYVEWTNNGKTELNYKNTEPVLDSDGSYFMYSKLRVEKKNWVERNSYSCSVVHEGLHNHHTTKSFSRTPGK", "light": "METDTLLLWVLLLWVPGSTGNIVLTQSPASLAVSLGLRATISCRASESVDIYGNSFMHWYQQKPGQPPKLLIYLASNLESGVPARFSGSGSRTDFTLTIDPVEADDAATYYCQQNNEDPYTFGGGTKLEIKRADAAPTVSIFPPSSEQLTSGGASVVCFLNNFYPKDINVKWKIDGSERQNGVLNSWTDQDSKDSTYSMSSTLTLTKDEYERHNSYTCEATHKTSTSPIVKSFNRNEC"}}, "key": {"[1]": {"system": "wound activated skin mast cells", "test": "Wound pharmacodynamic model of mast cell expansion in monkey", "details": "for inhibition of wound activated expansion of mast cells: 3 weeks"}, "[2]": {"system": "human CD34+, CD 117+ (c-Kit) bone marrow cells", "test": "CD34+ bone marrow cell CFU assay (SCF/GM-CSF colony formation), human", "type": "cell-based", "details": "1.0 ug/mL", "protocol": "(§1) The SR-1 monoclonal antibody was selected based on its equivalent functional potency at human and monkey c-Kit in the CD34+ bone marrow cell CFU assay (inhibition at 1.0 ug/mL), and its monkey PK."}, "[3]": {"system": "hematopoiesis", "test": "Hematopoiesis in SR-1 dose-ranging study", "type": "in vivo, African green monkey", "protocol": "(§2) SR-1 was used in dose-ranging studies from 3 to 30 mg/Kg administered once weekly for 4 weeks to determine the exposures required to inhibit hematopoiesis, spermatogenesis and active melanogenesis. A full blood panel including cell differentials was performed on blood samples taken at baseline, day 4, 7, 14, 21 and 28 after the start of the study. Analysis of freshly isolated blood samples was performed at the Queen Elizabeth Hospital Clinical Hematology lab, Barbados.\n(§3) The effect of 3-30 mpk administered once weekly for 4 weeks on melanogenesis was also examined since there may be utility in melanoma. To assess the effects on activated melanocytes which may better reflect a disease state, hair was depilated to activate melanogenesis. […] In the 10 mg/Kg cohort, SR-1 exposures were >8000-fold the UT-7 IC50."}, "[4]": {"system": "spermatogenesis", "test": "Spermatogenesis in dose-ranging study", "type": "in vivo, monkey"}, "[5]": {"system": "monkey c-Kit", "test": "CD34+ bone marrow cell CFU assay, monkey", "type": "cell-based", "details": "1.0 ug/mL", "protocol": "as §1"}, "[6]": {"system": "c-Kit dimer", "sequence (P10721 26-509 limits assumed)": "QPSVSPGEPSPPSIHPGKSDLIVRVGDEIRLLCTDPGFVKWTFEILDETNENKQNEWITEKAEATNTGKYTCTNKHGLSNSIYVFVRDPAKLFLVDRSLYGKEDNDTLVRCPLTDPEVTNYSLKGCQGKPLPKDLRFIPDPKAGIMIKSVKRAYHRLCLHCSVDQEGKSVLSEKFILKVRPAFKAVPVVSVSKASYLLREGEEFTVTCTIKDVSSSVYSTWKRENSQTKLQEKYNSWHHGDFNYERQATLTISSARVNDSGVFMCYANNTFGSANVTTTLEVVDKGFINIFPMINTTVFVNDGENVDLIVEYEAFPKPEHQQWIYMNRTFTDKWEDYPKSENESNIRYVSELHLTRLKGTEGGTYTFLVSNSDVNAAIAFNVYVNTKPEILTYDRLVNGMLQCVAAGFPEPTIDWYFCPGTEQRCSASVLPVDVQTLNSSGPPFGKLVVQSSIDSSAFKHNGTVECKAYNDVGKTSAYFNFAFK", "test": "Biacore binding to c-Kit dimer versus soluble monomer", "parameters": "species or system human", "details": "Biacore", "description": "Activation of c-Kit upon binding by stem cell factor (SCF) leads to dimerization/oligomerization, autophosphorylation and receptor internalization, most likely through a clathrin-dependent pathway. The SR-1 monoclonal antibody binds the c-Kit dimer with 1000-fold higher affinity compared to the soluble c-Kit extra-cellular domain monomer as determined by Biacore.\nCarbohydrates present on a glycoprotein can influence biological and functional properties. […] This is an important characteristic not predicted to be translated with certainty with the humanization and as the soluble c-Kit monomer is less likely to act as a sink for the antibody in vivo."}, "[7]": {"biological_target": "c-Kit (Homo sapiens, UniProt P10721)", "sequence (P10721 26-976)": "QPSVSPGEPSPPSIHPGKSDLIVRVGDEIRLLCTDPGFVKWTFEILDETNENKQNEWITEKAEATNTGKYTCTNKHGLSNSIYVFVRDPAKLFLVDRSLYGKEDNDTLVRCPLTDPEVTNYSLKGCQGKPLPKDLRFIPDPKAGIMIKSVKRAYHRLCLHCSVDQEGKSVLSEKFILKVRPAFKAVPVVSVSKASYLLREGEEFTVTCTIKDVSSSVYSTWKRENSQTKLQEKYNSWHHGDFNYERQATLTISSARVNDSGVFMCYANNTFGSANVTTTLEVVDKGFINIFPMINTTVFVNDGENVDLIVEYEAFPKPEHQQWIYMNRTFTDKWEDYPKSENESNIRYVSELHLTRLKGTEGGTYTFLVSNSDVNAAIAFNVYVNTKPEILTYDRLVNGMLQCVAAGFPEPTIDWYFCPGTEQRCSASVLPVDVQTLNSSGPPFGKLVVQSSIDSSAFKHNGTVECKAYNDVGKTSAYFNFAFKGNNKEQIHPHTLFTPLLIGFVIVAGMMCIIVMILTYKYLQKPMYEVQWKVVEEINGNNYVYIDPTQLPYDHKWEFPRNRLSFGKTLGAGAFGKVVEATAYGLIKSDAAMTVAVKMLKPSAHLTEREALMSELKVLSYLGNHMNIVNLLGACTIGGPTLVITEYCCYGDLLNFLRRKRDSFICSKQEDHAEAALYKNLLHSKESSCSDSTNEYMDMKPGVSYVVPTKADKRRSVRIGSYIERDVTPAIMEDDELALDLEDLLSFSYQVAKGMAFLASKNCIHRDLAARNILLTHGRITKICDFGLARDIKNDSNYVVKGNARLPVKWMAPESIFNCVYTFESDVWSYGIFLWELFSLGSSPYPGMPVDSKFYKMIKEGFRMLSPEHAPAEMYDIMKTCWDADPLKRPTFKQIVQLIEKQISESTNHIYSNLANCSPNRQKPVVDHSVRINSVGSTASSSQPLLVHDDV", "parameters": "endogenous in cells; host or cells: MO7e cells; cultured human mast cells derived from bone marrow CD34+ cells; primary human CD34+ CD117+ bone marrow cells; UT-7 cells", "details": "Broudy, J Cell Physiol. 1994; cited from earlier work"}, "[8]": {"system": "basal lung and colon mast cells", "test": "Depletion of basal lung and colon mast cells in monkey", "type": "in vivo", "protocol": "as §1\n[…] […] For practical reasons, basal pulmonary mast cells were evaluated on day 28 at the time of necropsy and the termination of the study."}, "[9]": {"system": "melanocytes", "test": "Melanogenesis (hair pigmentation after depilation) in dose-ranging study", "type": "in vivo, monkeys", "protocol": "as §2, §3"}}, "note": "“And” between values parts separate entries of the source, which are not always exact repeats. Equal entries are not always repeated. “Also recorded” adds a separate entry of the source."}
{"molecule": "B1", "values": [{"measurement": "inhibition of wound activated expansion of mast cells", "setting": "[1]; 0.3 mpk dose", "value": "partial inhibition"}, {"measurement": "inhibition of wound activated expansion of mast cells", "setting": "[1]; 1 and 3 mg/Kg cohorts", "value": "maximal efficacy"}, {"measurement": "effect on mast cells in wound activated model", "setting": "[1]; FIG. 1", "value": "inhibits mast cells"}, {"measurement": "sustained Ctrough exposure (fold the IC50) required for maximal inhibition of wound-expanded mast cells", "setting": "[1]; monkey, in vivo", "value": "> 7", "unit": "fold"}, {"measurement": "minimal effective dose in the wound PD model", "setting": "[1]; once weekly for 2 weeks in monkeys", "value": "< 0.3", "unit": "mg/kg"}, {"measurement": "functional potency at human c-Kit in CFU assay", "setting": "[2]", "value": "inhibition"}, {"measurement": "exposure levels as fold the UT-7 IC50", "setting": "[3]; 30 mg/Kg once weekly over 4 weeks", "value": "> 70,000 fold"}, {"measurement": "impact on hematological parameters", "setting": "[3]; 3 to 30 mg/Kg once weekly for 4 weeks, versus control and baseline", "value": "No significant impact"}, {"measurement": "RBCs", "setting": "[3]; 4 weeks after dosing started", "value": "non-significant decreases"}, {"measurement": "CD117 positive hematopoietic stem cells", "setting": "[3]; bone marrow", "value": "no depletion"}, {"measurement": "bone marrow histopathological analysis", "setting": "[3]; monkey, in vivo", "value": "no difference between drug treated and control cohorts"}, {"measurement": "effect on spermatogenesis at lowest dose", "setting": "[4]; 0.3 mg/Kg once weekly", "value": "less than the maximal effect; also recorded: sub-maximal effect"}, {"measurement": "exposure as fold the UT-7 IC50", "setting": "[4]; 0.3 mg/Kg once weekly", "value": "7 fold and > 7 fold"}, {"measurement": "inhibition of spermatogenesis", "setting": "[4]; 0.3-30 mg/Kg", "value": "dose-dependent inhibition"}, {"measurement": "recovery of spermatogenesis", "setting": "[4]; 9 months, all dosed animals", "value": "Normal spermatogenesis"}, {"measurement": "functional potency at monkey c-Kit in CFU assay", "setting": "[5]", "value": "inhibition"}, {"measurement": "affinity for c-Kit dimer compared to soluble c-Kit extra-cellular domain monomer", "setting": "[6]", "value": 1000, "unit": "fold"}, {"measurement": "intrinsic activity at c-Kit", "setting": "[7]", "value": "some agonist-like activity"}, {"measurement": "Ctrough PK level as fold the UT-7 cellular IC50", "setting": "[8]; 3.0 mg/Kg once weekly, basal lung mast cell depletion", "value": "> 200", "unit": "fold"}, {"measurement": "depletion of basal lung mast cells", "setting": "[8]; 3.0 mg/Kg once weekly, day 28", "value": "depletion of basal lung mast cells was observed"}, {"measurement": "depletion of basal colon mast cells, time course", "setting": "[8]; 3 mg/Kg to 30 mg/Kg once weekly, after 2 doses by day 14", "value": "maximally depleted"}, {"measurement": "Ctrough as fold the cell IC50 at depletion of basal mast cells", "setting": "[8]; day 14", "value": "> 800", "unit": "fold"}, {"measurement": "exposures as fold the UT-7 IC50", "setting": "[9]; 10 mg/Kg cohort", "value": "> 8000", "unit": "fold"}, {"measurement": "pigmentation of newly regrown hair", "setting": "[9]; 10 mg/Kg cohort", "value": "No effect"}, {"measurement": "pigmentation of newly regrown hair", "setting": "[9]; 30 mg/Kg dose", "value": "inhibition of hair pigmentation to variable degrees"}, {"measurement": "normal hair color of the coat", "setting": "[9]; 3-30 mpk once weekly for 4 weeks, any cohort", "value": "not visibly affected"}, {"measurement": "exposure (fold the cell IC50) required before qualitative impacts on pigmentation of newly regrown hair", "setting": "[9]; monkey, in vivo", "value": "> 8000", "unit": "fold"}, {"measurement": "no effect dose on hair pigmentation", "setting": "[9]; once weekly for 4 weeks", "value": "10 to 30", "unit": "mg/kg"}]}
